Measured values taken from patent US20050266509.
Numbering of substitutions follows the chain as printed.

Assays:
[1] = target: NR2B, full length clone (NMDA receptor subunit), Q13224
[2] = target: constitutive active Src kinase

NR2B, full length clone (NMDA receptor subunit), Q13224, sequence (Q13224 27-1484): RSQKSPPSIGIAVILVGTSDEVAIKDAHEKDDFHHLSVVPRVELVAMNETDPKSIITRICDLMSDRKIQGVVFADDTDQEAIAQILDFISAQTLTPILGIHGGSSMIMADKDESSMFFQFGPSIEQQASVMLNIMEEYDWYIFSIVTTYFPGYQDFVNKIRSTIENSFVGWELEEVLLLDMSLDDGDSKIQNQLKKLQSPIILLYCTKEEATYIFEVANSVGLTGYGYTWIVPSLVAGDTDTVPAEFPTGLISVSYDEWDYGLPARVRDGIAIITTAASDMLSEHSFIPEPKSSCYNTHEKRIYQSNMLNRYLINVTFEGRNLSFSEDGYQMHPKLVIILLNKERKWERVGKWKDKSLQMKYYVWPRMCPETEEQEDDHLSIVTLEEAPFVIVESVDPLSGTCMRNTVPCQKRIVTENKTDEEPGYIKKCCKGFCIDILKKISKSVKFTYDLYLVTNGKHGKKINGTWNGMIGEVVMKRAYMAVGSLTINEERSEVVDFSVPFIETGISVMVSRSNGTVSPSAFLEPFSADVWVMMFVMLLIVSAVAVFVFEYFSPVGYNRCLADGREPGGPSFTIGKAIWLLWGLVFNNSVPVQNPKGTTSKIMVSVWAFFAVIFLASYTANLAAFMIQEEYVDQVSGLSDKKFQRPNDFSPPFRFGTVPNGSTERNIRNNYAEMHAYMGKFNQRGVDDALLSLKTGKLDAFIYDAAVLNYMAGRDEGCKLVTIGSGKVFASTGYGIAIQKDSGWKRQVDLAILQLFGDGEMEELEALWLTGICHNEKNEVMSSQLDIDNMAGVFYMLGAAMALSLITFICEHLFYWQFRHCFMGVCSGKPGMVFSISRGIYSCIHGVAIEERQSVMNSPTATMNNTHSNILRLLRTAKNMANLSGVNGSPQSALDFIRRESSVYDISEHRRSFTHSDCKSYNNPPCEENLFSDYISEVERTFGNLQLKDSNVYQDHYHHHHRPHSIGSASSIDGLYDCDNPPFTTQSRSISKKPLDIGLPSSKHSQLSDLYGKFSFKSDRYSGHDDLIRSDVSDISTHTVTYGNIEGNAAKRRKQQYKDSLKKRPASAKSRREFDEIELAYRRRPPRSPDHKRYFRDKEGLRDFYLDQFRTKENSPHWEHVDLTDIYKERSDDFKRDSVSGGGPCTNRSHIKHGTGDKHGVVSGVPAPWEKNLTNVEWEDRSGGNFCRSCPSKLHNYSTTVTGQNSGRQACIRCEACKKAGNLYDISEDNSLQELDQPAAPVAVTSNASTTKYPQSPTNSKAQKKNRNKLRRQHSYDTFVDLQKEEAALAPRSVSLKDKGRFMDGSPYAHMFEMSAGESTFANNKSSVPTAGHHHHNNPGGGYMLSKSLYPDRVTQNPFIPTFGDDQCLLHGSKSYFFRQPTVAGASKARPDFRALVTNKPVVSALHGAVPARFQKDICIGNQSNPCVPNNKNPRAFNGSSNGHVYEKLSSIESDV

B1: PTPMEG, full length clone (amino-terminal myc-tag, c-terminal HA tag) (protein)
chain: MTSRFRLPAGRTYNVRASELARDRQHTEVVCNILLLDNTVQAFKVNKHDQGQVLLDVVFKHLDLTEQDYFGLQLADDSTDNPRWLDPNKPIRKQLKRGSPYSLNFRVKFFVSDPNKLQEEYTRYQYFLQIKQDILTGRLPCPSNTAALLASFAVQSELGDYDQSENLSGYLSDYSFIPNQPQDFEKEIAKLHQQHIGLSPAEAEFNYLNTARTLELYGVEFHYARDQSNNEIMIGVMSGGILIYKNRVRMNTFPWLKIVKISFKCKQFFIQLRKELHESRETLLGFNMVNYRACKNLWKACVEHHTFFRLDRPLPPQKNFFAHYFTLGSKFRYCGRTEVQSVQYGKEKANKDRVFARSPSKPLARKLMDWEVVSRNSISDDRLETQSLPSRSPPGTPNHRNSTFTQEGTRLRPSSVGHLVDHMVHTSPSEVFVNQRSPSSTQANSIVLESSPSQETPGDGKPPALPPKQSKKNSWNQIHYSHSQQDLESHINETFDIPSSPEKPTPNGGIPHDNLVLIRMKPDENGRFGFNVKGGYDQKMPVIVSRVAPGTPADLCVPRLNEGDQVVLINGRDIAEHTHDQVVLFIKASCERHSGELMLLVRPNAVYDVVEEKLENEPDFQYIPEKAPLDSVHQDDHSLRESMIQLAEGLITGTVLTQFDQLYRKKPGMTMSCAKLPQNISKNRYRDISPYDATRVILKGNEDYINANYINMEIPSSSIINQYIACQGPLPHTCTDFWQMTWEQGSSMVVMLTTQVERGRVKCHQYWPEPTGSSSYGCYQVTCHSEEGNTAYIFRKMTLFNQEKNESRPLTQIQYIAWPDHGVPDDSSDFLDFVCHVRNKRAGKEEPVVVHCSAGIGRTGVLITMETAMCLIECNQPVYPLDIVRTMRDQRAMMIQTPSQYRFVCEAILKVYEEGFVKPLTTSTNK
NR2B tyrosine phosphorylation, western blot with an NR2B phosphospecific antibody [1]: In presence of the active wildtype PTPMEG phosphatase, both the NR2B subunit as well as Src kinase were dephosphorylated
Src phosphorylation at position 418, western blot with anti PY418 antibody [2]: In presence of the active wildtype PTPMEG phosphatase, both the NR2B subunit as well as Src kinase were dephosphorylated
phosphorylation at Y418, western blot with a Src/fyn specific phosphoantibody [2]: In presence of PTPMEG (identified with a c-myc antibody from Upstate) there is a dephosphorylation of Src and fyn at position Y418

B2: PTPMEG-CS (inactive PTPase), full length clone (amino-terminal myc-tag, c-terminal HA tag) (protein)
chain: B1 chain with C852S
NR2B tyrosine phosphorylation, western blot [1]: Dephosphorylation of NR2B and Src kinase was reversed by addition of dephostatin, and unaffected in presence of the dominant negative form of PTPMEG (CS)
Src phosphorylation at position 418, western blot [2]: Dephosphorylation of NR2B and Src kinase was reversed by addition of dephostatin, and unaffected in presence of the dominant negative form of PTPMEG (CS)
